The text below walks through data of article PMC10071783 (Journal of Nuclear Medicine, 2023).

Molecules are shown by their SMILES. Like-named read-outs stand apart in the source and are kept apart here.

The conditions of data set [1]: 8 d; cited from earlier work. Here is the method:
DOTA and its derivatives are used to chelate ^225Ac and many of the previously mentioned radionuclides. However, to chelate ^225Ac with DOTA to yield high-specific-activity radioconjugates, temperatures above 70°C are typically required. Even if these temperatures are used, the resulting complex’s thermodynamic stability ([19]) and labeling kinetics are suboptimal ([20]).

Data set [2] can be described thus: Biodistribution in mice bearing subcutaneous H69 tumor xenografts. In kind it is in vivo. As to conditions: female, NCI Athymic NCr-nu/nu, mouse, 37 kBq, total radioactivity; for tissue uptake at 2 h: 2 h after injection; for tissue uptake at 2 h / tissue uptake at 24 h: H69 xenograft mice, n = 3, read-out: tumor uptake, percentage injected activity per gram of tissue; for tissue uptake at 4 h: 4 h after injection, read-out: kidney percentage injected activity per gram of tissue; for tissue uptake at 24 h: 24 h after injection. The method, then: All procedures and animal studies followed a protocol approved by the National Institutes of Health Institutional Animal Care and Use Committee (protocol ROB104). Female athymic homozygous nude mice (NCI Athymic NCr-nu/nu strain 553; Charles River Laboratories), 8–10 wk old, were subcutaneously engrafted with 8 × 10^6 H69 cells in 200 μL of ice-cold phosphate-buffered saline. Treatment of tumors with radiotracers for biodistribution or therapy studies was performed once palpable tumors developed, approximately 1 mo after inoculation. […] Full experimental details for the biodistribution experiments are reported in the supplemental information.
(C) Corresponding tumor-to-tissue ratios for selected organs with lysine pretreatment. Full 12-organ biodistribution data are reported in Supplemental Figures 8–11. Error bars represent SD. ***P < 0.005. […]. %IA/g = percentage injected activity per gram of tissue.

Data set [3] is described as follows: Dose-finding study in mice bearing H69 tumor xenografts. In kind it is in vivo. As to conditions: D-lysine pretreatment. The source says:
The promising biodistribution profile of ^225Ac-MACROPATATE led us to investigate its therapeutic efficacy. […] All mice in the 148-kBq treatment group (10/10) and 1 of 3 mice in the 92.3-kBq group were euthanized within 10 d of treatment because of substantial weight loss (>20%).

Another data set deals with H69 lung NET xenografts. The data set is described as follows: Head-to-head therapy study in mice engrafted with H69 cells. The format is in vivo. The settings on record: 46.3 kBq. Here is the method:
Animals engrafted with H69 cells were treated with either of the 2 radioconjugates or saline (n = 8–10, each). Local control and survival were the primary outcomes. All groups were tracked for humane endpoints including, but not limited to, tumors larger than 2,000 mm^3 and weight loss greater than 20%.
FIGURE 5. […] (A) Tumor volume measurements over time. Solid lines represent average volume, and dashed lines represent 95% CI. Plots for each dataset are discontinued after first mouse death due to excessive tumor volume. Full tumor volume measurements for study duration for each mouse are reported in Supplemental Figures 15–17. (B) Maximal response to treatment (tumor volume growth percentage) of individual mice. Nonresponding mice are represented as full tumor growth (2,000% increase). (C) Mouse survival over time. Endpoint was defined as tumor volume > 2,000 mm^3 or weight loss over 20% of starting weight. (D) Average mouse body weights over time for each treatment group. Error bars represent SD. ***P < 0.005. *P < 0.05.

Data set [4] in a line: Serum stability in human serum at 37°C by ITLC. In kind it is in vitro ADME. The settings on record: for remaining at 240 h, 370 kBq/mL: human serum (EMD Millipore), pH 7.4, 370 kBq in 1 mL, up to 10 d, read-out ITLC, read-out: intact conjugate remaining in human serum; for stability in human serum: ITLC. Here is the method: Radiochelate was diluted to 370 kBq in 1 mL of human serum and placed on an Eppendorf ThermoMixer set to 37°C. At fixed intervals, aliquots were removed from the reactions and analyzed by ITLC as described in the supplemental information.

Details of data set [5]: method as in PMID 33772332. The settings on record: cited from earlier work.
Details of data set [6]: method as in PMID 33772332. The settings on record: 148 kBq; cited from earlier work.

For `O=C([O-])c1cccc(CN2CCOCCOCCN(Cc3cccc(C(=O)[O-])n3)CCOCCOCC2)n1.[225Ac+3]` [^225Ac-MACROPA], in data set [1], the “stability in C57BL6 mice compared with 225Ac-DOTA” value was “comparable stability” and the “stability in human serum compared with 225Ac-DOTA” value is given as “comparable stability”.
Turning to `C[C@@H](O)[C@H](NC(=O)[C@@H]1CSSC[C@H](NC(=O)[C@@H](Cc2ccccc2)NC(=S)Nc2cc(CN3CCOCCOCCN(Cc4cccc(C(=O)O)n4)CCOCCOCC3)nc(C(=O)O)c2)C(=O)N[C@@H](Cc2ccc(O)cc2)C(=O)N[C@H](Cc2c[nH]c3ccccc23)C(=O)N[C@@H](CCCCN)C(=O)N[C@@H]([C@@H](C)O)C(=O)N1)C(=O)O` [^225Ac-MACROPATATE, metal not drawn], in data set [2] (in vivo), the tissue uptake at 2 h was determined as 9 %ID/g and the tissue uptake at 24 h was determined as 4 %ID/g. Further, in data set [2] (in vivo, after D-lysine administration (35 mg/mouse)), the tissue uptake at 4 h is 5.2 %ID/g. Further, the tissue uptake at 4 h in data set [2] (in vivo, without D-lysine) came to 11.5 %ID/g. In addition, the “mice euthanized within 10 d of treatment because of substantial weight loss (>20%)” value in data set [3] (92.3-kBq group) is given as 1 of 3. Also, in data set [3] (148-kBq treatment group), the “mice euthanized within 10 d of treatment because of substantial weight loss (>20%)” value is given as 10/10. Also, in the data set with H69 lung NET xenografts, the “duration of initial reduction in tumor volume after treatment” value is on record as “approximately 3 wk” and the “mice whose tumors subsequently relapsed” value is recorded as 7 of 8. In the data set on H69 lung NET xenografts (H69 xenograft mice, n = 8-10, vehicle 26 d, log rank P = 0.0006), this molecule yielded a median survival of 55 days. In addition, in data set [4], the share remaining at 240 h, 370 kBq/mL was 98% and the “stability in human serum” value is reported as “stable to 10 d”.
On to `C[C@@H](O)[C@H](NC(=O)[C@@H]1CSSC[C@H](NC(=O)[C@@H](Cc2ccccc2)NC(=O)CN2CCN(CC(=O)O)CCN(CC(=O)O)CCN(CC(=O)O)CC2)C(=O)N[C@@H](Cc2ccc(O)cc2)C(=O)N[C@H](Cc2c[nH]c3ccccc23)C(=O)N[C@@H](CCCCN)C(=O)N[C@@H]([C@@H](C)O)C(=O)N1)C(=O)O` [^225Ac-DOTATATE, metal not drawn, reference compound], for which the “intact 225Ac-DOTATATE after 10 d” value in data set [5] is 90%. The tissue uptake at 4 h in data set [2] (kidney, after D-lysine administration (35 mg/mouse)) was 3.1 %ID/g. In data set [2] (kidney, without D-lysine), the tissue uptake at 4 h turned out to be 6 %ID/g. Also, in data set [2] (tumor), the tissue uptake at 2 h was determined as 5 %ID/g and the tissue uptake at 24 h worked out at 2 %ID/g. In addition, the tolerability in mice entry in data set [6] is recorded as “well tolerated”. Also, in data set [4], the fraction remaining at 240 h, 370 kBq/mL turned out to be 95% and the “stability in human serum” value is on record as “stable to 10 d”.
